Data taken from patent publication US20210087244A1 (UNIVERSITY OF BRITISH COLUMBIA, published 2021).

Experiments:
Test in all cases: SPR direct binding (MASS-1), hybridoma supernatant over immobilized antigen
[1] = biological target: T1, linear CGHHQKG-conjugated-BSA (SEQ ID NO: 2) (bovine, UniProt P02769 25-607, conjugated to BSA)
T1 construct: also called Linear-Peptide; linear peptide-BSA
Description: (§1) All SPR measurements were performed using a Molecular Affinity Screening System (MASS-1) (Sierra Sensors GmbH, Hamburg, Germany), an analytical biosensor that employs high intensity laser light and high speed optical scanning to monitor binding interactions in real time. The primary screening of tissue culture supernatants was performed using an SPR direct binding assay, whereby BSA-conjugated peptides, A-beta42 Monomer and A-beta42 Oligomer are covalently immobilized on individual flow cells of a High Amine Capacity (HAC) sensorchip (Sierra Sensors GmbH, Hamburg, Germany) and antibodies flowed over the surface. Protein G purified mAbs were analyzed in a secondary screen using an SPR indirect (capture) binding assay, whereby the antibodies were captured on a protein A-derivatized sensorchip (XanTec Bioanalytics GmbH, Duesseldorf, Germany) and A-beta40 Monomer, A-beta42 Oligomer, soluble brain extracts and cerebrospinal fluid flowed over the surface. The specificity of the antibodies was verified in an SPR direct binding assay by covalently immobilizing A-beta42 Monomer and A-beta42 Oligomer on individual flow cells of a HAC sensorchip and flowing purified mAbs.
(§2) Clones were retested for their ability to bind cyclic peptide, linear peptide, A-beta 1-42 monomer and A-beta 1-42 oligomers prepared as described above. Binding assays were performed using SPR as described above (Direct binding assays).

[2] = biological target: T2, A-beta42 Oligomer (human)
T2 construct: also called A β 42 Oligomer; A-beta 1-42 oligomers
Description: as §1, §2

[3] = biological target: T3, cyclo(CGHHQKG)-conjugated-BSA (SEQ ID NO: 2) (bovine, UniProt P02769 25-607, head-to-tail cyclized (amide bond between N- and C-terminus); conjugated to SMCC-activated BSA)
T3 construct: also called Cyclic-Peptide; cyclic peptide-BSA
Description: as §1, §2

T1 sequence (P02769 25-607 limits assumed): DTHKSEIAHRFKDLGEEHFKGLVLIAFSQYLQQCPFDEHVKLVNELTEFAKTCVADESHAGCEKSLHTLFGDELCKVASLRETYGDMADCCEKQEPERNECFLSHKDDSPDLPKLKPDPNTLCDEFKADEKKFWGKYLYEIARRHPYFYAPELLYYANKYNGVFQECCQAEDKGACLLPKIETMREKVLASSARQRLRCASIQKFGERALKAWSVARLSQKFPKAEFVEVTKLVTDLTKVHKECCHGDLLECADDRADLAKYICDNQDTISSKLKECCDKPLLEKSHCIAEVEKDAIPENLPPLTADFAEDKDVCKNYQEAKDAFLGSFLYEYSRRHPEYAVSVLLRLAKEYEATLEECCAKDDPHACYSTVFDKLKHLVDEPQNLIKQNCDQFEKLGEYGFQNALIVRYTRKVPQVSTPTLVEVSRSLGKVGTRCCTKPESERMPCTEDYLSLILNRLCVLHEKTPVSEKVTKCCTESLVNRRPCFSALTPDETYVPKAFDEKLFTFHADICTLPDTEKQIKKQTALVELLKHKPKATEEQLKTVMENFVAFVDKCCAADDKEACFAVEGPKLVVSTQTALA
T3 sequence (P02769 25-607 limits assumed): as above
T2 sequence (peptide, as listed by the source): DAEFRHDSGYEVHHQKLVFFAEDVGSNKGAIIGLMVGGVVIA

B1: 301-12G11 (17) (antibody, V domains shown)
VH: QVQLQQPGAELVKPGASVKMSCKASGYSFTSYWINWVKQRPGQGLEWIGDVHPGRGVSTYNAKFKSKATLTLDTSSSTAYMQLSSLTSEDSAVYYCSRSHGNTYWFFDVWGAGTTVTVSS
VL: DVLMTQTPLSLPVSLGDQASISCRSSQSIVHSNGNTYLEWYLQKPGQSPKLLIYKVSNRFSGVPDRFSGSGSGTDFTLKISRVEAEDLGVYYCFQGSHVPFTFGSGTKLEIKR
notes: they begin with a leader (MGWSC.../MKLPV...) and end with a few constant-region residues
response units (RU) [1]: 1150 RU
response units (RU) [2]: 66.8 RU
response units (RU) [3]: 698 RU
